The target of test [1] is Shiga toxin 1 (Stx1) (Escherichia coli O157:H7) (UniProt P08026). As to the kind of experiment: cell-based or functional assay.
Test [2] has the same target. Description: dilution ELISA, HRP-anti-E-tag. In general terms: In an ELISA, binding on a coated surface is turned into a signal by an enzyme label.
Test [3] has the same target. As to the kind of experiment: SPR, Stx1 immobilised. Background: SPR reads the build-up and loss of mass on a sensor chip optically.
The target is the same in test [4].
For test [5] the target is unchanged. The source holds these as a separate data set.
The target of test [6] is T1, Botulinum neurotoxin serotype B (BoNT/B) holotoxin (Clostridium botulinum, UniProt P10844 2-1291).
T1 sequence: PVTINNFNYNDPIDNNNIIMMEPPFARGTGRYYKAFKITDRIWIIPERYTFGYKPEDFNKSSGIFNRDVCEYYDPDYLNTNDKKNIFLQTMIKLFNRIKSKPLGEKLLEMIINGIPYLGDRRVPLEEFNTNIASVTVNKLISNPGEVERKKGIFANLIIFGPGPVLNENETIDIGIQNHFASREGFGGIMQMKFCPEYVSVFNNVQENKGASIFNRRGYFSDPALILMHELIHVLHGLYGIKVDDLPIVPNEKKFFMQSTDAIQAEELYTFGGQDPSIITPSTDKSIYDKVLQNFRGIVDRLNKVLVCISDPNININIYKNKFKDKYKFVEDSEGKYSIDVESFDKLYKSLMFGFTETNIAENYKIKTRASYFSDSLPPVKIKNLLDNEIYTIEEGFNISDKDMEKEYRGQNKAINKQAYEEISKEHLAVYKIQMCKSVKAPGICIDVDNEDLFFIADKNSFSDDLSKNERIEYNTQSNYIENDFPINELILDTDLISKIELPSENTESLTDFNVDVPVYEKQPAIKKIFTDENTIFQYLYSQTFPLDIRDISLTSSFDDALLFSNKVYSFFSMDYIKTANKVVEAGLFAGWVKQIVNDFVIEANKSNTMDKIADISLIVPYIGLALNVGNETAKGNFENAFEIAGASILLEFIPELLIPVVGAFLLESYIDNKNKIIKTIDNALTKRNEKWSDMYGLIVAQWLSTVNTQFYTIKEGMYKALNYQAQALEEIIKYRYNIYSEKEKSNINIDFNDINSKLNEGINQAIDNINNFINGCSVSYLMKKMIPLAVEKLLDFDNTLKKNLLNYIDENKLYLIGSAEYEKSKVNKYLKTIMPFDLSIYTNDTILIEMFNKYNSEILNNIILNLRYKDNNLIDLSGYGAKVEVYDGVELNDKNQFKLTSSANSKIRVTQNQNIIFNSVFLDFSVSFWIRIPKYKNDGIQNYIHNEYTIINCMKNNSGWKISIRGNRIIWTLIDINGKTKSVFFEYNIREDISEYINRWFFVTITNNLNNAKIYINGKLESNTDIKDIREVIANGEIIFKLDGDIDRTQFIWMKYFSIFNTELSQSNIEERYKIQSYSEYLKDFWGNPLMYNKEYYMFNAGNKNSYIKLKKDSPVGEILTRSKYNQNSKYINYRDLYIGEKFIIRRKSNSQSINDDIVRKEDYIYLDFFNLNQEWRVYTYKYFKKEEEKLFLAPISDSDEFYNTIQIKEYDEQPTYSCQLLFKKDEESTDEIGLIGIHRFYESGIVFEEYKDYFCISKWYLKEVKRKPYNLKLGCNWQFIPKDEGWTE
Description: SPR; chip ligand for BoNT/B not described.

Like-named read-outs stand apart in the source and are kept apart here.

Here are results for 17 molecules from US20140294826A1 (TUFTS UNIVERSITY, published 2014).

Usually EC50 stands for the midpoint of the concentration-response curve. Read a low EC50 as an effect from little substance. A word on the Kd: it is the concentration at which binding is half-saturated. The EC50 (read off the curve) is the concentration giving half of the maximal effect.

Shiga toxin 1 (Stx1) (Escherichia coli O157:H7), sequence (P08026 23-315): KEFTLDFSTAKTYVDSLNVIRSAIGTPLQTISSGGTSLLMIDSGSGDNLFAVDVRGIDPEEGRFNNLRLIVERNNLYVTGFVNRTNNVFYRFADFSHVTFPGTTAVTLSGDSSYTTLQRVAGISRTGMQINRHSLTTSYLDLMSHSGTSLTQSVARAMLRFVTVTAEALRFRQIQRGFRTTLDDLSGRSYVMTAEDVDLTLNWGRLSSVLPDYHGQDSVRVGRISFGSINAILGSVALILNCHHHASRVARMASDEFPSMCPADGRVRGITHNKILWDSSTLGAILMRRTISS

B1: G1/D10 heterodimer VNA (designed binder)
chain: QVQLVESGGGLVQPGESLRLSCVASASTFSTSLMGWVRQAPGKGLESVAEVRTTGGTFYAKSVAGRFTISRDNAKNTLYLQMNSLKAEDTGVYYCTAGAGPIATRYRGQGTQVTVSSAHHSEDPGGGGSGGGGSGGGGSQVQLVETGGLVQAGGSLRLSCAASGVPFSDYTMAWFRQAPGKEREVVARITWRGGGPYYGNSGNGRFAISRDIAKSMVYLHMDSLKPEDTAVYYCAASRLRPALASMASDYDYWGQGTQVSVSSEPKTPKPQ
For B1, the IC50, Vero cell neutralization assay in test [1] was over 100 nM. In addition, the EC50 in test [2] was over 1000 nM.

B2: Stx2-D2 (VHH)
VHH: QVQLVESGGGLVQPGGSLGLSCAMSGTTQDYSAVGWFRQAPGKEREGVSCISRSGRRTNYADSVRGRFTISRDNAKDTVYLQMNSLKPDDTAVYYCAARKTDMSDPYYVGCNGMDYWGKGTLVTVSS
B2 had a half-maximal effective concentration (EC50) in test [2] of over 1000 nM.

B3: A9/D4 heterodimer VNA (designed binder)
chain: QVQLVETGGGLAQAGDSLRLSCVEPGRTLDMYAMGWIRQAPGEEREFVASISGVGGSPRYADSVKGRFTISKDNTKSTIWLQMNSLKPEDTAVYYCAAGGDIYYGGSPQWRGQGTRVTVSSEPKTPKPQGGGGSGGGGSGGGGSQVQLVESGGGLVQAGGSLRLSCAASGRINGDYAMGWFRQAPGEEREFVAVNSWIGGSTYYTDSVKGRFTLSRDNAKNTLSLQMNSLKPEDTAVYYCAAGHYTDFPTYFKEYDYWGQGTQVTVSSEPKTPKPQ
On to B3, for which the equilibrium dissociation constant (Kd) in test [3] is 1.2 nM. This molecule also gave an IC50, Vero cell neutralization assay in test [1] of 1 nM. Besides, in test [4], the EC50 (read off the curve) was found to be 0.6 nM. The molecule further showed an EC50 in test [2] of 0.6 nM.

B4: A9/A5/G1 heterotrimer VNA (designed binder)
chain: QVQLVETGGGLAQAGDSLRLSCVEPGRTLDMYAMGWIRQAPGEEREFVASISGVGGSPRYADSVKGRFTISKDNTKSTIWLQMNSLKPEDTAVYYCAAGGDIYYGGSPQWRGQGTRVTVSSEPKTPKPQGGGGSGGGGSGGGGSQVQLVESGGGLVQPGGSLRLSCAALEFTLEDYAIAWFRQAPGKEREGVSCISKSGVTKYTDSVKGRFTVARDNAKSTVILQMNNLRPEDTAVYNCAAVRPVFVDSVCTLATRYTYWGEGTQVTVSSAHHSEDPGGGGSGGGGSGGGGSQVQLVESGGGLVQPGESLRLSCVASASTFSTSLMGWVRQAPGKGLESVAEVRTTGGTFYAKSVAGRFTISRDNAKNTLYLQMNSLKAEDTGVYYCTAGAGPIATRYRGQGTQVTVSSAHHSEDP
In test [3], B4 returned a dissociation constant (Kd) of 0.46 nM. Besides, the IC50, Vero cell neutralization assay in test [1] worked out at 0.05 nM. Further, the concentration for a half-maximal effect (EC50 (read off the curve)) in test [5] amounted to 0.5 nM. The EC50 in test [2] is 0.5 nM.

B5: Stx-A5 (VHH)
VHH: QVQLVESGGGLVQPGGSLRLSCAALEFTLEDYAIAWFRQAPGKEREGVSCISKSGVTKYTDSVKGRFTVARDNAKSTVILQMNNLRPEDTAVYNCAAVRPVFVDSVCTLATRYTYWGEGTQVTVSS
As for B5, the Kd in test [3] amounted to 12.5 nM. The same molecule displayed an IC50, Vero cell neutralization assay in test [1] of 100 nM. In test [2], this molecule returned a concentration for a half-maximal effect (EC50) of 15 nM.

B6: Stx2-A6 (VHH)
VHH: QVQLVESGGGLVQPGGSLKLSCAASGFTLADYVTVWFRQAPGKSREGVSCISSSRGTPNYADSVKGRATVSRNNANNTVYLQMNGLKPDDTAIYYCAAIRPARLRAYRECLSSQAEYDYWGQGTQVTVSS
On to B6, for which the concentration for a half-maximal effect (EC50) in test [2] is over 1000 nM.

B7: Stx1-D4 (VHH)
VHH: QVQLVESGGGLVQAGGSLRLSCAASGRINGDYAMGWFRQAPGEEREFVAVNSWIGGSTYYTDSVKGRFTLSRDNAKNTLSLQMNSLKPEDTAVYYCAAGHYTDFPTYFKEYDYWGQGTQVTVSS
For B7, the dissociation constant Kd in test [3] turned out to be 0.128 nM. Further, the IC50, Vero cell neutralization assay in test [1] is over 1000 nM. This molecule yielded an EC50 (read off the curve) in test [4] of 0.5 nM. The molecule further registered a half-maximal effective concentration (EC50) in test [2] of 0.5 nM.

B8: Stx2-D10 (VHH)
VHH: QVQLVETGGLVQAGGSLRLSCAASGVPFSDYTMAWFRQAPGKEREVVARITWRGGGPYYGNSGNGRFAISRDIAKSMVYLHMDSLKPEDTAVYYCAASRLRPALASMASDYDYWGQGTQVSVSS
In test [1], B8 yielded an IC50, Vero cell neutralization assay of over 1000 nM. Further, the concentration giving a half-maximal response (EC50) in test [2] is over 1000 nM.

B9: Stx2-G1 (VHH)
VHH: QVQLVESGGGLVQPGESLRLSCVASASTFSTSLMGWVRQAPGKGLESVAEVRTTGGTFYAKSVAGRFTISRDNAKNTLYLQMNSLKAEDTGVYYCTAGAGPIATRYRGQGTQVTVSS
Molecule B9 had an IC50, Vero cell neutralization assay in test [1] of over 1000 nM. Also, the EC50 in test [2] was over 1000 nM.

B10: A5/D10 heterodimer VNA (designed binder)
chain: QVQLVESGGGLVQPGGSLRLSCAALEFTLEDYAIAWFRQAPGKEREGVSCISKSGVTKYTDSVKGRFTVARDNAKSTVILQMNNLRPEDTAVYNCAAVRPVFVDSVCTLATRYTYWGEGTQVTVSSAHHSEDPGGGGSGGGGSGGGGSQVQLVETGGLVQAGGSLRLSCAASGVPFSDYTMAWFRQAPGKEREVVARITWRGGGPYYGNSGNGRFAISRDIAKSMVYLHMDSLKPEDTAVYYCAASRLRPALASMASDYDYWGQGTQVSVSSEPKTPKPQ
On to B10, for which, in test [3], the dissociation constant Kd is 9.2 nM. This molecule gave an IC50, Vero cell neutralization assay in test [1] of 50 nM. The molecule also registered an EC50 in test [2] of 30 nM.

B11: Stx1-A9 (VHH)
VHH: QVQLVETGGGLAQAGDSLRLSCVEPGRTLDMYAMGWIRQAPGEEREFVASISGVGGSPRYADSVKGRFTISKDNTKSTIWLQMNSLKPEDTAVYYCAAGGDIYYGGSPQWRGQGTRVTVSS
In test [3], B11 had a dissociation constant (Kd) of 7.6 nM. In test [1], the IC50, Vero cell neutralization assay is 10 nM. In addition, the EC50 in test [2] amounted to 10 nM.

B12: Stx-A4 (VHH)
VHH: QVQLVESGGGLVQPGGSLRLSCAASGFTLGSYHIGWFRHPPGKEREGTSCLSSRGDYTKYAEAVKGRFTISRDNTKSTVYLQMNNLKPEDTGIYVCAAIRPVLSDSHCTLAARYNYWGQGTQVTVSS
Turning to B12, the Kd in test [3] stood at 7.2 nM. Besides, in test [1], the IC50, Vero cell neutralization assay was over 330 nM. The EC50 in test [2] was found to be 30 nM.

B13: ciB-A11 (VHH)
VHH: QVQLVEGGGGLVQPGGALRLSCAASVFGMDYYYIGWVRQAPGKEREGVSCISNIGRTHYADSVKGRFTISRDNAKNTVYLQMNSLKPEDTAVYYCAAAPLVGNYCPASYEYESWGQGTQVTVSS
In turn, B13 showed a Kd in test [6] of 0.84 nM.

B14: ciB-A11/B5 heterodimer (designed binder)
chain: QVQLVEGGGGLVQPGGALRLSCAASVFGMDYYYIGWVRQAPGKEREGVSCISNIGRTHYADSVKGRFTISRDNAKNTVYLQMNSLKPEDTAVYYCAAAPLVGNYCPASYEYESWGQGTQVTVSSAHHSEDPSGGGGSGGGGSGGGGSQVQLVESGGGLVQPGGSLRLSCAASGQSLDNYIIGWFRQAPGKEREGVSCIDRTGTVTHYADSVKGRFTISTDNVKNTVYLEMNDLKPEDTATYFCAAERRWGVVSVCVISDYYFDSWGQGTQVTVSSAHHSEDPS
B14 had a Kd in test [6] of 5.3 nM.

B15: Stx2-G9 (VHH)
VHH: QVQLVESGGGLVQPGGSLTLSCTASGFTLNSYKIGWFRQAPGKEREGVSCINSGGNLRSVEGRFTISRDNTKNTVSLHMDSLKPEDTGVYHCAAAPALNVFSPCVLAPRYDYWGQGTQVTVSS
In test [1], B15 showed an IC50, Vero cell neutralization assay of over 1000 nM. The molecule further displayed an EC50 in test [2] of over 1000 nM.

B16: ciB-B5 (VHH)
VHH: QVQLVESGGGLVQPGGSLRLSCAASGQSLDNYIIGWFRQAPGKEREGVSCIDRTGTVTHYADSVKGRFTISTDNVKNTVYLEMNDLKPEDTATYFCAAERRWGVVSVCVISDYYFDSWGQGTQVTVSS
With B16, in test [6], the equilibrium dissociation constant (Kd) came to 0.97 nM.

B17: Stx2-H6 (VHH)
VHH: QVQLVETGGGLVQPGGSLRLSCAASGFSLDPYVIGWFRQAPGKEREGVSCITSRAASRTSVDSVNERFTISRDNAKNTVDLHINNLKPEDSGVYYCAAVPPAKLPLFSLCRSLPAKYDYWGQGTQVTVSS
Regarding B17, the IC50, Vero cell neutralization assay in test [1] is over 1000 nM. The molecule further displayed a concentration for a half-maximal effect (EC50) in test [2] of over 1000 nM.
